# Results published in PMC4691197 (PLoS ONE, 2015).
# Target: T1, CFP WT βA3-crystallin (UniProt P05813 1-215)
# T1 construct: βA3-crystallin, wild type; Surmise: N1 vectors place the fluorescent protein at the C-terminus of the insert; Expressed as ~51 kDa protein; degraded products were also seen on blots; also called CFP βA3-crystallin; βA3- CFP; source: HeLa, transfected, in live cells
# Assay: FRET or BRET; FLIM-FRET in live HeLa cells co-transfected with CFP βA3-crystallin (donor) and YFP-tagged acceptors; donor life-time after 405 nm pulsed excitation; E = 1-TFRET/TCFP with TCFP 2.8 ns; 5-6 cells from 3 samples
# Details: partners not purified
Binder,FRET efficiency [%],mean life-time of the donor CFP βA3-crystallin [ns]
"YFP αB CD (core domain of αB-crystallin, 65–146 amino acids) (domain or fragment, UniProt P02511 65-146, looked up, αB-crystallin core domain, residues 65-146; also called αB CD-YFP; source: HeLa, transfected, in live cells) LSEMRLEKDRFSVNLDVKHFSPEELKVKVLGDVIEVHGKHEERQDEHGFISREFHRKYRIPADVDPLTITSSLSSDGVLTVN",14,2.5 ± 0.2
"GPRKQVSGPERTIPITREEKPAVTAAPKK (domain or fragment, UniProt P02511 147-175, looked up, αB-crystallin C-terminal extension, residues 147-175; also called αB CTE-YFP; source: HeLa, transfected, in live cells) [YFP αB CTE (C-terminal extension of αB-crystallin, 147–175 amino acids)]",14,2.5 ± 0.2
"YFP WT αB-crystallin (natural protein, UniProt P02511 1-175, looked up, αB-crystallin, wild type, in pZS Yellow1-N1; Surmise: whole αB-crystallin (1-175, as the domain limits imply) with the fluorescent protein at the C-terminus (N1 vector); Expressed as ~46 kDa protein; also called WT YFP αB-crystallin; YFP αB; source: HeLa, transfected, in live cells) MDIAIHHPWIRRPFFPFHSPSRLFDQFFGEHLLESDLFPTSTSLSPFYLRPPSFLRAPSWFDTGLSEMRLEKDRFSVNLDVKHFSPEELKVKVLGDVIEVHGKHEERQDEHGFISREFHRKYRIPADVDPLTITSSLSSDGVLTVNGPRKQVSGPERTIPITREEKPAVTAAPKK",18,2.4 ± 0.2
"YFP αB N78D crystallin (natural protein, UniProt P02511 1-175, looked up, αB-crystallin N78D, made by site-directed mutagenesis of the pZS Yellow1-N1 construct of αB-crystallin; Same limits as m12; source: HeLa, transfected, in live cells) MDIAIHHPWIRRPFFPFHSPSRLFDQFFGEHLLESDLFPTSTSLSPFYLRPPSFLRAPSWFDTGLSEMRLEKDRFSVDLDVKHFSPEELKVKVLGDVIEVHGKHEERQDEHGFISREFHRKYRIPADVDPLTITSSLSSDGVLTVNGPRKQVSGPERTIPITREEKPAVTAAPKK",36,1.6 ± 0.3
"YFP αB N146D crystallin (natural protein, UniProt P02511 1-175, looked up, αB-crystallin N146D, made by site-directed mutagenesis of the pZS Yellow1-N1 construct of αB-crystallin; Same limits as m12; source: HeLa, transfected, in live cells) MDIAIHHPWIRRPFFPFHSPSRLFDQFFGEHLLESDLFPTSTSLSPFYLRPPSFLRAPSWFDTGLSEMRLEKDRFSVNLDVKHFSPEELKVKVLGDVIEVHGKHEERQDEHGFISREFHRKYRIPADVDPLTITSSLSSDGVLTVDGPRKQVSGPERTIPITREEKPAVTAAPKK",22,2.2 ± 0.3
"YFP αB NTD (N-terminal domain of αB-crystallin, 1–64 amino acids) (domain or fragment, UniProt P02511 1-64, looked up, αB-crystallin N-terminal domain, residues 1-64; also called αB NTD-YFP; source: HeLa, transfected, in live cells) MDIAIHHPWIRRPFFPFHSPSRLFDQFFGEHLLESDLFPTSTSLSPFYLRPPSFLRAPSWFDTG",32,2.1 ± 0.3

# Target: T2, Recombinant His-tagged WT βA3-crystallin (UniProt P05813 1-215)
# T2 construct: βA3-crystallin, wild type; Surmise: cloning into Nhe I/Xho I of pET 28b with a stop codon in the insert gives an N-terminal His tag; no cleavage is mentioned
# Assay: SPR; BIACORE 2000; βA3-crystallin immobilised on a CM5 chip by EDC/NHS to ~2500 RU; analytes 5 μM-25 μM at 20 μL/min; room temperature; 50 mM sodium phosphate, pH 7.8, 150 mM NaCl; regeneration with 1 M NaCl; duplicates; 1:1 Langmuir fit
# Details: both partners purified
row,Binder,Kd [nM]
1,"Recombinant His-tagged WT αB-crystallin (natural protein, UniProt P02511 1-175, looked up, αB-crystallin, wild type; Surmise: N-terminal His tag from pET 28b) MDIAIHHPWIRRPFFPFHSPSRLFDQFFGEHLLESDLFPTSTSLSPFYLRPPSFLRAPSWFDTGLSEMRLEKDRFSVNLDVKHFSPEELKVKVLGDVIEVHGKHEERQDEHGFISREFHRKYRIPADVDPLTITSSLSSDGVLTVNGPRKQVSGPERTIPITREEKPAVTAAPKK",5.75
2,"Recombinant His-tagged αB-crystallin N146D (natural protein, UniProt P02511 1-175, looked up, αB-crystallin with the deamidation-mimicking change N146D, made by site-directed mutagenesis of the pET 28b construct of WT αB; Surmise: N-terminal His tag from pET 28b; also called αB N146D) MDIAIHHPWIRRPFFPFHSPSRLFDQFFGEHLLESDLFPTSTSLSPFYLRPPSFLRAPSWFDTGLSEMRLEKDRFSVNLDVKHFSPEELKVKVLGDVIEVHGKHEERQDEHGFISREFHRKYRIPADVDPLTITSSLSSDGVLTVDGPRKQVSGPERTIPITREEKPAVTAAPKK",5.05
3,"Recombinant His-tagged αB-crystallin N78D (natural protein, UniProt P02511 1-175, looked up, αB-crystallin with the deamidation-mimicking change N78D, made by site-directed mutagenesis of the pET 28b construct of WT αB; Surmise: N-terminal His tag from pET 28b; also called αB N78D) MDIAIHHPWIRRPFFPFHSPSRLFDQFFGEHLLESDLFPTSTSLSPFYLRPPSFLRAPSWFDTGLSEMRLEKDRFSVDLDVKHFSPEELKVKVLGDVIEVHGKHEERQDEHGFISREFHRKYRIPADVDPLTITSSLSSDGVLTVNGPRKQVSGPERTIPITREEKPAVTAAPKK",2.46
